# Results published in patent publication CN112079917A (CANVEST WUHAN BIOTECHNOLOGY CO LTD, dated 2020).
# B1: H7N9病毒特异性识别抗体P51H08 (IgG形式) (antibody, V domains shown)
# VH: QVQLVQSGGGLVQPGGSMRLSCAASGFTFSSYAMSWVRQAPGKGLEWVSGISGSGGSTYYADSVKGRFTISRDNSKNTLHLPMNSLRADDTAVYYCAKDLNWWPDYWGQGTLVTVSS
# VL: SYVLTQPPSVSVAPGKTASMTCGGNNIGSKRVHWYQQKPGQAPVLVVYNDNERPSAIPERFSGSNSGNTATLTVSRVEAGDEADYYCLVWDSSSLHRVFGGGTKLTVLG
# Legend:
# [1] = target: 17SF HA毒株 (A/Guangdong/17SF003/2016) HA蛋白 (influenza A virus A/Guangdong/17SF003/2016 (H7N9)); experiment: ELISA, IgG form on HA protein
# [2] = target: SH02 HA毒株 (A/Shanghai/2/2013 H7N9) HA蛋白 (influenza A virus A/Shanghai/2/2013 H7N9); experiment: ELISA, IgG form on HA protein
# [3] = target: BSA (UniProt P02769 25-607); experiment: ELISA, IgG form
# Chain of BSA (P02769 25-607 limits assumed): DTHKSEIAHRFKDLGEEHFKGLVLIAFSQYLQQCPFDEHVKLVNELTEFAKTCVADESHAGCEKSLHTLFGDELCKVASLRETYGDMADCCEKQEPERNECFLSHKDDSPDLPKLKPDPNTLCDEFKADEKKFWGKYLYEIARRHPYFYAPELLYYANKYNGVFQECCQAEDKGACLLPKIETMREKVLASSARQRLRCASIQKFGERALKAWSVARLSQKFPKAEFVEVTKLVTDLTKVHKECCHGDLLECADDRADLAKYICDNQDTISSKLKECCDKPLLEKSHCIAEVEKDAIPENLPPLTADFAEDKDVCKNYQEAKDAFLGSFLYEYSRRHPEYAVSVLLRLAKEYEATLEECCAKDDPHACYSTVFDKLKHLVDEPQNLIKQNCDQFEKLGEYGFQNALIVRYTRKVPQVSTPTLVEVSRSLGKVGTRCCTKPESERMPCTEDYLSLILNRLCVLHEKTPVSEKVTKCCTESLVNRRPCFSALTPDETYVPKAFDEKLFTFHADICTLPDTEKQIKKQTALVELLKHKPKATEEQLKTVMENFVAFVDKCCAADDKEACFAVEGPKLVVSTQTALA
binder,measurement,setting,value
B1,EC50,[1],3.56 nM
same,EC50,[2],1.65 nM
same,binding result,[3],no binding
